{"source": "paper PMC4678828", "about": "“Binding dynamics of a monomeric SSB protein to DNA: a single-molecule multi-process approach”", "key": {"A647-SsoSSB A114C [1]": {"target": "T1, A647-SsoSSB A114C (Sulfolobus solfataricus, UniProt Q97W73 1-148, A114C)", "T1 sequence": "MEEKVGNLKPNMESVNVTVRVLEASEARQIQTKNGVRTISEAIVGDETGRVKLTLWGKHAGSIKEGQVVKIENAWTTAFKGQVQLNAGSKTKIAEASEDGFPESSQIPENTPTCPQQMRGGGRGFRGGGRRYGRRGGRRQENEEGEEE", "assay": "single-molecule FRET kinetics; first monomer; kon 0.032 nM-1 s-1, koff ~1.75 s-1; 10 mM KCl; 50 mM Tris-HCl pH 7.6, 10 mM KCl, 5% glycerol, 0.1 mg/ml BSA, 5-50 nM DNA, 20 C (PIFE also 65 C)", "settings": "protein: recombinant; chain copies: 2; label: 5' biotin, 3' Cy3; single strand"}, "A647-SsoSSB A114C [2]": {"target": "T1, A647-SsoSSB A114C", "assay": "single-molecule FRET/PIFE/quenching kinetics; second monomer; kon 0.16 nM-1 s-1, koff 0.31 s-1; 10 mM KCl; 50 mM Tris-HCl pH 7.6, 10 mM KCl, 5% glycerol, 0.1 mg/ml BSA, 5-50 nM DNA, 20 C (PIFE also 65 C)", "settings": "protein: recombinant; chain copies: 2; label: 5' biotin, 3' Cy3; single strand"}, "A647-SsoSSB A114C [3]": {"target": "T1, A647-SsoSSB A114C", "assay": "single-molecule FRET/PIFE/quenching kinetics; S4 pathway, two monomers in one step; kon 0.006 nM-1 s-1, koff 0.33 s-1; 50 mM Tris-HCl pH 7.6, 10 mM KCl, 5% glycerol, 0.1 mg/ml BSA, 5-50 nM DNA, 20 C (PIFE also 65 C)", "settings": "protein: recombinant; chain copies: 2; label: 5' biotin, 3' Cy3; single strand"}, "A647-SsoSSB A114C [4]": {"target": "T1, A647-SsoSSB A114C", "assay": "fluorescence self-quenching titration; 10 mM KCl; Hill 1.4 ± 0.2 in text; Fig 2 legend gives 20 ± 1 nM, Hill 1.3; 50 mM Tris-HCl pH 7.6, 10 mM KCl, 5% glycerol, 0.1 mg/ml BSA, 5-50 nM DNA, 20 C (PIFE also 65 C)", "settings": "protein: recombinant; chain copies: 2; single strand"}, "SsoSSB wild-type [5]": {"target": "T2, SsoSSB wild-type (Sulfolobus solfataricus (Methods print …, UniProt Q97W73 1-148))", "T2 sequence": "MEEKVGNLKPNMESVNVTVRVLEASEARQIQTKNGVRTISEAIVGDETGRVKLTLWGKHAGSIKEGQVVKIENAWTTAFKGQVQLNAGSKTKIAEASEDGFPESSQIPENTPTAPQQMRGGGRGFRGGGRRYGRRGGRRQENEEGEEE", "assay": "tryptophan fluorescence quenching; Hill model; 50 mM Tris-HCl pH 7.6, 10 mM KCl, 5% glycerol, 0.1 mg/ml BSA, 5-50 nM DNA, 20 C (PIFE also 65 C)", "settings": "protein: recombinant; chain copies: 2; single strand"}, "A647-SsoSSB A114C [6]": {"target": "T1, A647-SsoSSB A114C", "assay": "ensemble FRET; two-site model, first monomer; 50 mM Tris-HCl pH 7.6, 10 mM KCl, 5% glycerol, 0.1 mg/ml BSA, 5-50 nM DNA, 20 C (PIFE also 65 C)", "settings": "protein: recombinant; chain copies: 2; label: 3' Cy3 (amino); single strand"}, "SsoSSB wild-type [7]": {"target": "T2, SsoSSB wild-type", "assay": "fluorescence titration (PIFE); 65 C; Hill 1.4 ± 0.2; 50 mM Tris-HCl pH 7.6, 10 mM KCl, 5% glycerol, 0.1 mg/ml BSA, 5-50 nM DNA, 20 C (PIFE also 65 C)", "settings": "protein: recombinant; chain copies: 2; label: 3' Cy3 (amino); single strand"}, "A647-SsoSSB A114C [8]": {"target": "T1, A647-SsoSSB A114C", "assay": "ensemble FRET; Hill model, 1.8 ± 0.2; 50 mM Tris-HCl pH 7.6, 10 mM KCl, 5% glycerol, 0.1 mg/ml BSA, 5-50 nM DNA, 20 C (PIFE also 65 C)", "settings": "protein: recombinant; chain copies: 2; label: 3' Cy3 (amino); single strand"}, "A647-SsoSSB A114C [9]": {"target": "T1, A647-SsoSSB A114C", "assay": "ensemble FRET; two-site model, second monomer; 50 mM Tris-HCl pH 7.6, 10 mM KCl, 5% glycerol, 0.1 mg/ml BSA, 5-50 nM DNA, 20 C (PIFE also 65 C)", "settings": "protein: recombinant; chain copies: 2; label: 3' Cy3 (amino); single strand"}, "SsoSSB wild-type [10]": {"target": "T2, SsoSSB wild-type", "assay": "fluorescence titration (PIFE); 20 C, 10 mM KCl; Hill 1.8 ± 0.2; 50 mM Tris-HCl pH 7.6, 10 mM KCl, 5% glycerol, 0.1 mg/ml BSA, 5-50 nM DNA, 20 C (PIFE also 65 C)", "settings": "protein: recombinant; chain copies: 2; label: 3' Cy3 (amino); single strand"}}, "data": [{"binder": "CCCCCCCCCCCC (ssDNA)", "note": "[BidC12Cy3]", "values": [{"measurement": "Kd", "setting": "A647-SsoSSB A114C [1]", "result": "54 ± 2", "unit": "nM"}, {"measurement": "Kd", "setting": "A647-SsoSSB A114C [2]", "result": "~2", "unit": "nM"}, {"measurement": "Kd", "setting": "A647-SsoSSB A114C [3]", "result": "~57", "unit": "nM"}]}, {"binder": "CCCCCCCCCCCC (ssDNA)", "note": "[dC12]", "values": [{"measurement": "Kd", "setting": "A647-SsoSSB A114C [4]", "result": "22 ± 1", "unit": "nM"}]}, {"binder": "TTTTTT (ssDNA)", "note": "[dT6]", "values": [{"measurement": "Kd", "setting": "SsoSSB wild-type [5]", "result": "143 ± 95", "unit": "nM"}]}, {"binder": "CCCCCCCCCCCC (ssDNA)", "note": "[dC12Cy3]", "values": [{"measurement": "Kd", "setting": "A647-SsoSSB A114C [6]", "result": "37 ± 4", "unit": "nM"}, {"measurement": "Kd", "setting": "SsoSSB wild-type [7]", "result": "15 ± 1", "unit": "nM"}, {"measurement": "Kd", "setting": "A647-SsoSSB A114C [8]", "result": "24 ± 2", "unit": "nM"}, {"measurement": "Kd", "setting": "A647-SsoSSB A114C [9]", "result": "2.8 ± 1", "unit": "nM"}, {"measurement": "Kd", "setting": "SsoSSB wild-type [10]", "result": "9 ± 1", "unit": "nM"}]}]}
